Laboratory results taken from patent US20200308270A1 (Zymeworks, published 2020).
Numbering of substitutions follows the chain as printed. In names and notes the source's numbering stands.

B1: CAT-2200 designed Vlambda-Ckappa chimeric Fab, design 18 (E83F_D85T_T105E) (Fab, V domains shown)
VH: not shown
VL: NFMLTQPHSVSESPGKTVTISCTRSSGSLANYYVQWYQQRPGSSPTIVIFANNQRPSGVPDRFSGSIDSSSNSASLTISGLKTEDFATYYCQTYDPYSVVFGGGTKLEVLR
B2: CAT-2200 designed Vlambda-Ckappa chimeric Fab, design 21 (E83F_D85V_T105E_V106I) (Fab, V domains shown)
VH: not shown
VL: B1 VL with T88V, V109I
B3: CAT-2200 designed Vlambda-Ckappa chimeric Fab, design 25 (E83V_V106I) (Fab, V domains shown)
VH: not shown
VL: B1 VL with F86V, T88D, E108T, V109I
B4: CAT-2200 designed Vlambda-Ckappa chimeric Fab, design 17 (E83F_D85T) (Fab, V domains shown)
VH: not shown
VL: B1 VL with E108T
B5: CAT-2200 designed Vlambda-Ckappa chimeric Fab, design 19 (E83F_D85V_T105E) (Fab, V domains shown)
VH: not shown
VL: B1 VL with T88V
B6: CAT-2200 designed Vlambda-Ckappa chimeric Fab, design 23 (E83V) (Fab, V domains shown)
VH: not shown
VL: B1 VL with F86V, T88D, E108T
B7: CAT-2200 designed Vlambda-Ckappa chimeric Fab, design 16 (E83F_V106I) (Fab, V domains shown)
VH: not shown
VL: B1 VL with T88D, E108T, V109I
B8: CAT-2200 designed Vlambda-Ckappa chimeric Fab, design 15 (E83F_T105E) (Fab, V domains shown)
VH: not shown
VL: B1 VL with T88D
B9: CAT-2200 designed Vlambda-Ckappa chimeric Fab, design 24 (E83V_T105E) (Fab, V domains shown)
VH: not shown
VL: B1 VL with F86V, T88D
B10: CAT-2200 designed Vlambda-Ckappa chimeric Fab, design 29 (E83V_D85T_T105E_V106I) (Fab, V domains shown)
VH: not shown
VL: B1 VL with F86V, V109I
B11: CAT-2200 designed Vlambda-Ckappa chimeric Fab, design 27 (E83V_D85T_T105E) (Fab, V domains shown)
VH: not shown
VL: B1 VL with F86V
B12: CAT-2200 designed Vlambda-Ckappa chimeric Fab, design 26 (E83V_D85T) (Fab, V domains shown)
VH: not shown
VL: B1 VL with F86V, E108T
B13: CAT-2200 designed Vlambda-Ckappa chimeric Fab, design 14 (E83F) (Fab, V domains shown)
VH: not shown
VL: B1 VL with T88D, E108T
B14: CAT-2200 designed Vlambda-Ckappa chimeric Fab, design 20 (E83F_D85T_T105E_V106I) (Fab, V domains shown)
VH: not shown
VL: B1 VL with V109I
B15: CAT-2200 designed Vlambda-Ckappa chimeric Fab, design 28 (E83V_D85V_T105E) (Fab, V domains shown)
VH: not shown
VL: B1 VL with F86V, T88V
B16: H3 designed Vlambda-Ckappa chimeric Fab, design 35 (E83A) (Fab, name in Kabat numbering, V domains shown)
VH: QVQLQESGGGLVKPGGSLRLSCAASGFTFSSYWMSWVRQAPGKGLEWVANINRDGSASYYVDSVKGRFTISRDDAKNSLYLQMNSLRAEDTAVYYCARDRGVGYFDLWGRGTLVTVSS
VL: QSALTQPASVSGSPGQSITISCTGTSSDVGGYNFVSWYQQHPGKAPKLMIYDVSDRPSGVSDRFSGSKSGNTASLIISGLQADDAADYYCSSYGSSSTHVIFGGGTKVTVLR
B17: H3 wild-type lambda Fab (Fab, V domains shown)
VH: B16 VH
VL: B16 VL with A85E, R112G
notes: Truncated heavy chain (VH-CH1-upper IgG1 hinge) and 'wild-type' lambda light chain (H3 VL + IGLC2); also called WT; H3 Fab
B18: H3 designed Vlambda-Ckappa chimeric Fab, design 39 (E83A_D85T_T105E_V106I) (Fab, name in Kabat numbering, V domains shown)
VH: B16 VH
VL: B16 VL with D87T, T109E, V110I
B19: H3 designed Vlambda-Ckappa chimeric Fab, design 37 (E83A_D85T) (Fab, name in Kabat numbering, V domains shown)
VH: B16 VH
VL: B16 VL with D87T
B20: H3 designed Vlambda-Ckappa chimeric Fab, design 36 (E83A_T105E) (Fab, name in Kabat numbering, V domains shown)
VH: B16 VH
VL: B16 VL with T109E
B21: H3 designed Vlambda-Ckappa chimeric Fab, design 38 (E83A_D85T_T105E) (Fab, name in Kabat numbering, V domains shown)
VH: B16 VH
VL: B16 VL with D87T, T109E

Experiments:
recombinant human IL-17A = target: T1, recombinant human IL-17A (human, UniProt Q16552 20-155, limits assumed); assay: SPR (ProteOn), IL-17A immobilized, Fab analyte;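 also: IL-17A amine-coupled on a GLC sensor chip at roughly 75–200 RU, double-referenced sensorgrams fitted with a Langmuir binding model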
T1 construct: Bought reagent
Procedure: IL-17 affinity determination was carried out as follows. The IL-17A surface was generated using a GLC sensorchip activated by a 1:10 dilution of the standard BioRad sNHS/EDC solutions injected for 140s at 100 pt/min in the ligand (vertical) direction. Immediately after the activation, 1 to 4 microg/mL solution of IL-17A in 10 mM NaOAc pH 4.5 was injected in the ligand (vertical) direction at a flow rate of 25 or 100 microL/min until approximately 75-200 resonance units (RUs) were immobilized. Remaining active groups were quenched by a 140s injection of 1M ethanolamine at 100 μL/min also in the ligand direction. […] Firstly, two buffer injections for 30s at 100 microL/min in the analyte (horizontal) direction were used to stabilize the baseline. […] Sensorgrams were aligned and double-referenced using the buffer blank injection and interspots, and the resulting sensorgrams were analyzed using ProteOn Manager software v3.1. The double-referenced sensorgrams were fit to the Langmuir binding model.

recombinant human HER3 = target: T2, recombinant human HER3 (human, UniProt P21860 20-643); assay: SPR (Biacore T200), HER3 captured via anti-His, Fab analyte;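 also: single cycle kinetics with five Fab concentrations, referenced against a blank flow cell and mock-buffer injections, sensorgrams fit to a 1:1 binding model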
T2 construct: Bought reagent
Procedure: HER3 affinity determination in Fabs was carried out as follows. The screening of Fabs (preparative SEC purified) for binding to HER3 antigen occurred in two steps: an indirect capture of HER3 onto the anti-His antibody, followed by the injection of five concentrations of Fabs, for kinetic analysis using single cycle kinetics. […] HER3 was injected at 4-8 μg/mL over the active flow cell for 60 s at a flow rate of 10 μL/min. […] HER3 was not captured on the reference (blank) flow cell. […] The captured HER3 surfaces were regenerated by 10 mM glycine pH 1.5 for 120 s at 30 μL/min to prepare the surfaces for the next injection cycle. At least two mock-buffer injections were performed for each analyte injection and used for referencing. The resulting single cycle kinetics sensorgrams were analyzed using Biacore T200 BiaEvaluation software version 3.0 and fit to the 1:1 binding model.

T1 sequence (Q16552 20-155 limits assumed): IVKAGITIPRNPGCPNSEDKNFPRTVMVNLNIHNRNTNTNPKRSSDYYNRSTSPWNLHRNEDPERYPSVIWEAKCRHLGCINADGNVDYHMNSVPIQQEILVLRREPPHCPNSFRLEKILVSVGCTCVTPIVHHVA

Binder | Kd (recombinant human IL-17A) [nM] | Kd (recombinant human HER3) [nM]
B1 | 0.3 | 
B2 | 0.3 | 
B3 | 0.4 | 
B4 | 0.3 | 
B5 | 0.3 | 
B6 | 0.2 | 
B7 | 0.3 | 
B8 | 0.3 | 
B9 | 0.3 | 
B10 | 0.3 | 
B11 | 0.2 | 
B12 | 0.3 | 
B13 | 0.3 | 
B14 | 0.3 | 
B15 | 0.2 | 
B16 |  | 59.1
B17 |  | 92.4
B18 |  | 89.6
B19 |  | 83.5
B20 |  | 66.4
B21 |  | 72.2
